Read-outs that look alike come from different tables or passages of the source.
How the values were obtained:
[1] = tested on: CCCCCCCCCCCCCCCC(=O)Oc1ccc([N+](=O)[O-])cc1; assay: purified protein; type: biochemical, Rhizopus microsporus; details: pH 8.0, 40°C, emulsified substrate, Triton X-100 and gum arabic in the standard assay
[2] = tested on: CCCCCCCCCCCCCCCC(=O)Oc1ccc([N+](=O)[O-])cc1; assay: purified protein; details: pH 8.0, 40°C, emulsified substrate, Triton X-100 and gum arabic in the standard assay

Substance: Rhizopus chinensis lipase (RCL; proRCLCNQ): N14Q (proRCLCN14Q)
- enzymatic_activity (N-glycosylation at N14): decreases, kcat 60.70 to 24.82 s-1; Km 0.20 to 2.01 mM; kcat/Km 2.92*10^5 to 1.22*10^5 M-1 s-1
- expression_or_secretion (N-glycosylation at N14): no change
- stability_or_folding (N-glycosylation at N14): decreases
- structure_or_conformation (N-glycosylation at N14): no change

Substance: Rhizopus chinensis lipase (RCL; proRCLCNQ): N14Q (proRCLCN14Q), 90% (v/v) organic solvents, 24 h
- stability_or_folding (N-glycosylation at N14): decreases, relative activity e.g. isooctane 78 ± 3.5% to 70 ± 3.0%; DMSO 58 ± 4.0% to 51 ± 4.2%

Substance: Rhizopus chinensis lipase (RCL; proRCLCNQ): N48Q (proRCLCN48Q)
- enzymatic_activity (N-glycosylation at N48): no change, kcat 60.70 vs 61.33 s-1; Km 0.20 vs 0.19 mM; kcat/Km 2.92*10^5 vs 3.11*10^5 M-1 s-1
- expression_or_secretion (N-glycosylation at N48): no change
- stability_or_folding (N-glycosylation at N48): no change, about 70% residual activity after 1 h at 50 °C for both

Substance: Rhizopus chinensis lipase (RCL; proRCLCNQ): N60Q (proRCLCN60Q)
- expression_or_secretion (N-glycosylation at N60): abolishes

Substance: Rhizopus chinensis lipase (RCL; proRCLCNQ): N60Q (proRCLCN60Q), mRNA level by RT-PCR
- other (N-glycosylation at N60): no change

Substance: proRCLCNQ (Rhizopus microsporus var. chinensis; K92N/N40Q/R93Q)
- Km ([1]; printed Km inconsistent with printed kcat/Km (tenfold), possible misprint): 2010 ± 120 µM

Substance: proRCLCNQ (Rhizopus microsporus var. chinensis; K92N/N74Q/R93Q)
- Km [1]: 190 ± 20 µM
- kcat [1]: 61.3 ± 2.5 s⁻¹
- kcat/Km [1]: 311000 ± 61000 M⁻¹ s⁻¹

Substance: proRCLCNQ (Rhizopus microsporus var. chinensis; K92N/R93Q)
- Km [1]: 200 ± 40 µM
- kcat [1]: 60.7 ± 2.2 s⁻¹
- kcat/Km [1]: 292000 ± 55000 M⁻¹ s⁻¹

Substance: r27RCLC (Rhizopus microsporus var. chinensis)
- Km [2]: 340 ± 100 µM
- kcat [2]: 122 ± 3.1 s⁻¹
- kcat/Km [2]: 356000 ± 81000 M⁻¹ s⁻¹
